Publication PMC9792439 (Biochimica et biophysica acta. General subjects, 2022)

Target: GST-tagged wild type human UBQLN2 (human, UniProt Q9UHD9 1-624)
Experiment: pull-down

GST-tagged wild type human UBQLN2, sequence (Q9UHD9 whole entry): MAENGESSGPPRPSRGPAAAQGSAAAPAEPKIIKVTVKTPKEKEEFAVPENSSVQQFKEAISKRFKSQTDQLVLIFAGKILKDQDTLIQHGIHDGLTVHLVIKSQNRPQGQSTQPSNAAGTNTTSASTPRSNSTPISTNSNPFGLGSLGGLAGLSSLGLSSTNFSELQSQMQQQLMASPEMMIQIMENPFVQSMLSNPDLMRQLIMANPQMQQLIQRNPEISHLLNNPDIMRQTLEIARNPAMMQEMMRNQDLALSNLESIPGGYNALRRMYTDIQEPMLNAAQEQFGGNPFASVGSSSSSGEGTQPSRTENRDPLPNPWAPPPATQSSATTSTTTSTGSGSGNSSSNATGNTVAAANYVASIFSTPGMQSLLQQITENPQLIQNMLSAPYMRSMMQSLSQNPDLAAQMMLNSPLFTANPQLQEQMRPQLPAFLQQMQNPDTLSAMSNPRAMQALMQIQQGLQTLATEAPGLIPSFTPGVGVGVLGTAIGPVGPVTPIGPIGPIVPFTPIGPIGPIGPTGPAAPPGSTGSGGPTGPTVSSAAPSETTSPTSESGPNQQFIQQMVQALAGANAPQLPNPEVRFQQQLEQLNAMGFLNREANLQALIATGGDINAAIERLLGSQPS

B1: HSPA1B ATP-binding domain (1 to 385 aa) with 6 His tag (domain or fragment)
chain: not shown
B1: binds.
